Experimental data: patent publication US20250333501A1 (University of California, published 2025)
Changes are numbered by the printed parent chain.

T1: human CLDN6 fused to GFP, expressed on engineered HEK293T cells (HEK293T-CLDN6-mGFP) (human, UniProt P56747 1-220)
T1 construct: It calls residues 1-21 a signal peptide; also called Claudin-6; HEK293T-CLDN6-mGFP Artificial CLDN6+; not shown: mGFP tag
T1 sequence: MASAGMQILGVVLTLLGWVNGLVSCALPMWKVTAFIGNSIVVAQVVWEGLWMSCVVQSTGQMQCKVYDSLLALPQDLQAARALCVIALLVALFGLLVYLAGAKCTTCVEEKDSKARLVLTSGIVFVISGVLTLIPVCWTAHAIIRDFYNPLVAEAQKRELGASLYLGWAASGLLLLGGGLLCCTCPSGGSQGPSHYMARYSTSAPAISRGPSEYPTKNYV

T2: CLDN6 endogenously expressed by human cancer cell lines (ARK2, OVCA429) (human, UniProt P56747 1-220)
T2 construct: Untagged endogenous protein; also called Endogenous CLDN6+
T2 sequence: T1 sequence

B1: AB1 (antibody, V domains shown)
VH: QVQLQQSAAELARPGASVKMSCKASGYTFTTYTMHWVKQRPGQGLEWIGFINPSSGYTDYNQKFKDRTTLTADKSSSTVYMQLSSLTSEDSAVYYCANGDYYVAYWGQGTLVTVSA
VL: QIVLTQSPAIMSASLGERVTMTCTASSSVSSTYFHWYQQKPGSSPKLWIYSTSNLASGVPRRFSGSASGTSYSLTISSMEAEDAATYYCHQYHRSPLTFGAGTKLELK
notes: Labelled with Alexa Fluor 647 NHS ester for FACS
B2: AB17 (antibody, V domains shown)
VH: QVQLQQSGAELAKPGASVKMSCKASGYTFTGYWMHWVKQRPGQGLEWLGYINPSTGYTESNQKFKDKATLTADKSSTTAYMQLRSLTPEDSAVYYCAREGITTVLVDYWGQGTTLTVSS
VL: B1 VL with T32S, F34L, R61A, A67G, L97P
notes: as for B1
B3: AB19 (antibody, V domains shown)
VH: EVQLQQSGPELVKPGGSMKISCKASGYSFTGYTMNWVKRSHGKNLEWIGLINPYNGVTTYNQNFKGKATLAVDKSSSTAYMELLGLTSEDSAVYYCTRDPLYYGYRDSTMDYWGQGTSVTVSS
VL: NIMMTQSPSSLAVSAGEKVTMSCKSSQSVLFSSNQKNYLAWYQQKPGQSPRLLIYWASTRESGVPDRFTGSGSGTDFTLTISNVQAEDLAVYYCHQYLSSRTFGAGTKLELK
notes: as for B1
B4: AB5 (antibody, V domains shown)
VH: EVQLQQSGPELVKPGASVKMSCKASGYIFTHYIMHWVKQKPGQGLEWIGCINPYNDGTKYNEKFKGKATLTSDKSSSTAYMELSSLTSEDSAVYYCARYYGYPYYSMDYWGQGTSVTVSS
VL: DVLMTQTPLSLPVSLGDQPSISCRSSQSIVHSNGNTYLDWYLQKPGQSPKLLIYKVSNRFSGVPDRFSGSGSGTDFTLKISRVEAEDLGVYYCFQGSHVPFTFGSGTRLEIK
notes: as for B1
B5: AB4 (antibody, V domains shown)
VH: QVQLQQSGAELARPGASVKMSCKASGYTFTSYTMHWIKQRPGQGQEWIGYINPSSTYTHYIKKFKDKATLTADKSSSTAYMQLRSLTSEDSAVYYCSRGELGGFAYWGQGTLVTVSA
VL: DVVMTQTPLSLPVSLGDQASISCRSSQSLVHSDGNTYLNWYLQKPGQSPKLLIYKVSNRFSGVPDRFSGSGSGTDFTLKIRRVEAEDLGVYFCSQSTHVPYTFGGGTKLEIK
notes: Labelled with Alexa Fluor 647 for FACS and with Texas Red-X in the internalization assay
B6: AB6 (antibody, V domains shown)
VH: DVQLQESGPGLVKSSQSLSLTCSVTGYSITSGYYWKWIRQFPGNKLEWMGYISYDGGINYNPSLKNRISITRDTSKNQFFLKLNSVTTEDTAKYYCARFGKGAMDYWGQGTSVTVSS
VL: AIVMFQSPSSLVVSAGEKVTMSCKSSQSLLNSRTRKNYLAWYQQKPGQSPKLLIYWASTRESGVPDRFTGSGSGTDFTLTISSVQAEDLAVYYCKQSYYLYTFGGGTKLEIK
notes: as for B1
B7: AB3 (antibody, V domains shown)
VH: EVKLEESGGGLVQPGGSMKLSCVASGFTFSNYWMNWVRQSPEKGLEWVAQIRLKSDNYATHYAESVKGRFTISRDDSKRSVYLQMNNLRAEDTGTYYCNDGPPSGCWGQGTTLIVSS
VL: DIQMTQSPASLSASVGETVTITCRISENIYSYLAWYQQKQGKSPQLLVYNAKILVEGVPSRFSGSGSGTQFSLKINSLQPEDFGNYYCQHHYTVPWTFGGGTKLEIK
notes: as for B5
B8: AB2 (antibody, V domains shown)
VH: B7 VH with N31D
VL: B7 VL
notes: as for B1
B9: AB16 (antibody, V domains shown)
VH: EVRLVESGGGLMQPGGSLKLPCAASGFPFSSSAMSWVRQTPEKRLEWVASINSDGNTYYPDSVKGRFTISRDSARNILYLQMSSLRSEDTAMYYCTRNGDYRYDEFAYWGQGTLVTVSA
VL: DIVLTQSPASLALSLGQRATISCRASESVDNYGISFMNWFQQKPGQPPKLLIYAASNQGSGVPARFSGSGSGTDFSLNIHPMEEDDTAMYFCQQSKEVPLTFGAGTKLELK
notes: as for B1
B10: AB11-chim (antibody, V domains shown)
VH: DVQLVESGGGLVQPRGSRKLSCAASGFTFSSFGMHWVRQAPEKGLEWVAYISSDSRTIYYADTVKGRFTISRDNPTNTLFLQMTSLRSEDTAMYYCARDYGRTYEAYWGQGTLVTVSA
VL: DIVLTQSPASLAVSLGQRATISCRASKSVSTSGYSYIHWYQQKPGQPPKLLIYLASNLESGVPARFSGSGSGTDFTLNIHPVEEEDAATYYCQHSRELPLTFGAGTKLELK
notes: 'chim' is the pre-humanized form (parental variable regions); also called pre-humanized (chimeric) form of AB11
B11: AB9-4 (antibody, V domains shown)
VH: QVQLVQSGAEVKKPGASVKMSCKASGYRFTDYNMHWVRQAPGQGLEWIGYINPNNGGTNYAQKFQGRATLTVDTSTSTAYMELSSLRSEDTAVYYCARDYLYFFDCWGQGTLLTVSS
VL: DIQMTQSPSSLSASVGDRVTITCRASQTIGTWLAWYQQKPGKAPKLLIYAAASLADGVPSRFSGSGSGTDFTFTISSLQPEDFVTYYCQQLYSIPRTFGQGTKLEIK
notes: also called Humanized AB 9-4
B12: AB11-2 (antibody, V domains shown)
VH: EVQLVESGGGLVQPGGSLRLSCAASGFTFSSFGMHWVRQAPGKGLEWVAYISSDSRTIYYADSVKGRFTISRDNAKNSLYLQMNSLRAEDTAVYYCARDYGRTYEAYWGQGTLVTVSS
VL: DIVMTQSPDSLAVSLGERATINCRASKSVSTSGYSYIHWYQQKPGQPPKLLIYLASNLESGVPDRFSGSGSGTDFTLTISSLQAEDVAVYYCQHSRELPLTFGQGTKLEIK
notes: also called Humanized AB 11-2
B13: AB11-3 (antibody, V domains shown)
VH: B12 VH
VL: B12 VL with M4L, L82V, I110L
notes: also called Humanized AB 11-3

Biological target: T1, human CLDN6 fused to GFP, expressed on …
Assay: FACS, AF647-labelled mAb, HEK293T-CLDN6-mGFP cells
Description: (§1) Antibodies were purified and cell surface binding of the antibodies to CLDN6 and the antibody IC₅₀ were determined by FACS in which CLDN6 antibodies were directly conjugated with Alexa Fluor® 647 NHS Ester (Succinimidyl Ester), Cat #A20106 (ThermoFisher Scientific) following the manufacturer's protocol. CLDN6 antibodies were tested from 0.32 nM to 1000 nM (serial dilution 1:5, 6 points) in a 50 μl volume with 150,000 cells system.
(§2) CLDN6-expressing cells were used in FACS assays to determine the CLDN6 antibody's ability to bind to CLDN6 on the surface of cells and to cross-react with other CLDN family members. HEK293 T cells engineered to express human CLDN6 fused to GFP, mouse CLDN6 fused to GFP, CLDN9-GFP, CLDN4-GFP, or CLDN3-GFP, or GFP alone (without CLDN6) were used as artificial models of CLDN6 expression. ARK2, OVCA429, LS513 and MCF7 cells were used as endogenous models of CLDN6 expression, as well as models for CLDN3/4 expression.
(§3) For each type of cell tested and for each mAb, cells were detached from the surface of the culture flasks by EDTA (instead of trypsin) in order to protect the cell surface proteins. The detached cells were then incubated with Alexa Fluor®-labeled CLDN6 mAbs for 30 min in the dark on ice at a pre-determined concentration. The CLDN6 mAbs were directly labeled with Alexa Fluor® 647 NHS Ester (Succinimidyl Ester). After washing, the cells were read by a BD Accuri™ Flow Cytometer C6 to detect antibody-antigen protein binding in channel FL4H. Each antibody was tested at varied concentrations to establish a dose-fluorescence curve. The EC50/IC50 of the antibodies (the concentration of the antibody at which half the max value were calculated based on the values of FL4H (gated in viable singlet cells) using the Very Simple IC50 Tool kit available online which allows biological dose-response data to be plotted and fitted to curve types to give the EC50/IC50. The max value was the lowest concentration of the antibody at which fluorescence maxes out. The antibodies were also screened for their ability to cross-react with other CLDN proteins such as CLDN9, CLDN3, and CLDN4. These values were used to determine each antibody's relative affinity among the set of antibodies tested. Cross-reactivity data were obtained using a similar methodology, but with cells having a different expression profile for CLDN6, CLDN3, CLDN4 and CLDN9.

EC50 | Binder
109 nM | B1
2650 nM | B2
≥ 5000 nM | B3
10 nM | B4
17 nM | B5
1430 nM | B6
604 nM | B7
182 nM | B8
≥ 5000 nM | B9

Biological target: T1, human CLDN6 fused to GFP, expressed on …
Assay: FACS, 0.3 µg Ab, 293T clone with human CLDN6
In short: (§4)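 Engineered 293T clones expressing human CLDN6 were detached with EDTA and incubated with Alexa Fluor 647 NHS ester-labelled humanized antibody, at 0.3 µg or 1.5 µg, for 30 min on ice in the dark. After washing, the cells were read by flow cytometry on a BD Accuri C6 in channel FL4H. Fluorescence in this direct-binding assay reflects relative antigen binding strength.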

FACS fluorescence | Binder
1670 | B10
15300 | B11
1290 | B12
1010 | B13

Biological target: T2, CLDN6 endogenously expressed by human …
Assay: FACS, AF647-labelled mAb, OVCA429 cells
Description: as §1, §2, §3

EC50 | Binder
84 nM | B1
5 nM | B4
168 nM | B5
394 nM | B6
1100 nM | B7
912 nM | B8

Biological target: T2, CLDN6 endogenously expressed by human …
Assay: FACS, AF647-labelled mAb, ARK2 cells
Description: as §1, §2, §3

EC50 | Binder
105 nM | B1
8 nM | B4
48 nM | B5
765 nM | B6
1650 nM | B7
1360 nM | B8

Biological target: T2, CLDN6 endogenously expressed by human …
Assay: FACS, 1.5 µg Ab, OVCA429 cells

FACS fluorescence | Binder
2440 | B10
1110 | B11
2690 | B12
2200 | B13

Biological target: T1, human CLDN6 fused to GFP, expressed on …
Assay: FACS, 1.5 µg Ab, 293T clone with human CLDN6
In short: as §4

FACS fluorescence | Binder
3490 | B10
34300 | B11
2560 | B12
2360 | B13

Biological target: T2, CLDN6 endogenously expressed by human …
Assay: FACS, 1.5 µg Ab, ARK2 cells
Description: (§5) FACS assays were also carried out to determine relative antigen binding strengths of the humanized antibodies (at either 1.5 μg or 0.3 μg) for binding to CLDN6 as expressed by the indicated cancer cell lines. 2nd Ab only was used as a negative control.

FACS fluorescence | Binder
1260 | B10
1550 | B11
1940 | B12
1540 | B13

Biological target: T2, CLDN6 endogenously expressed by human …
Assay: FACS, 0.3 µg Ab, ARK2 cells
Description: as §5

FACS fluorescence | Binder
1320 | B10
1120 | B11
1400 | B12
1320 | B13
